Experimental data from publication PMC3982999.

Target: human ubiquitin (human) (UniProt P0CG48)
Assay: NMR titration

- Kd: < 10 µM
Substance: WT spartin 155-367 (GST tag removed) (from UniProt Q8N0X7 155-367) (domain or fragment)
